Columns and labels:
[1] = Sensitivity of parental chimera SEQ ID NO: 33 to ligands relative to wild type α7-nAChR
[2] = system: Lenti-X 293T cells; assay: YFP fluorescence quenching anion reporter plate reader assay of engineered receptors stimulated with acetylcholine or a non-native ligand; assay type: cell-based; settings: for percent quench of YFP fluorescence, 30 nM TC-6683: TC-6683 30 nM; for percent quench of YFP fluorescence, 300 nM TC-6683: TC-6683 300 nM; for percent quench of YFP fluorescence, 3 uM TC-6683: TC-6683 3 uM; for percent quench of YFP fluorescence, 30 uM TC-6683: TC-6683 30 uM; for percent quench of YFP fluorescence, 100 uM TC-6683: TC-6683 100 uM; for percent quench of YFP fluorescence, 100 uM ach: acetylcholine 100 uM; for percent quench of YFP fluorescence, 300 uM ach: acetylcholine 300 uM; for percent quench of YFP fluorescence, 500 uM ach: acetylcholine 500 uM; for percent quench of YFP fluorescence, 1 mM ach: acetylcholine 1 mM; for percent quench of YFP fluorescence, 3 mM ach: acetylcholine 3 mM; for percent quench of YFP fluorescence, 10 mM ach: acetylcholine 10 mM
Method in brief: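 YFP quench was followed for about 1 min 43 s after ligand delivered in iodide-based ECS, pH 7.2. Values are end-of-read fluorescence (last 10 s) divided by the pre-ligand baseline (15 s). Cells were LX293T, transfected with receptor DNA a day before the assay.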

[3] = system: rat DRG neurons; assay: Rheobase shift and evoked action potentials in rat DRG neurons (current clamp); assay type: cell-based
Method in brief: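 Rat DRG neurons expressing engineered receptors, whole-cell current clamp at RT. ECS at pH 7.3; K-gluconate internal at pH 7.2. 500 ms steps from −200 to 700 pA with and without ligand. Rheobase taken as the smallest depolarising step that fires an action potential; input resistance from negative steps.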

B1: CODA71: parental chimeric LGIC: human α7-nAChR ligand binding domain with GlyRα1 Cys-loop fused to human GlyRα1 ion pore domain (protein)
chain: MRCSPGGVWLALAASLLHVSLQGEFQRKLYKELVKNYNPLERPVANDSQPLTVYFSLSLLQIMDVDEKNQVLTTNIWLQMSWTDHYLQWNVSEYPGVKTVRFPDGQIWKPDILLYNSADERFDATFHTNVLVNSSGHCQYLPPGIFKSSCPMDLKNFPMDVQTCKLKFGSWSYGGWSLDLQMQEADISGYIPNGEWDLVGIPGKRSERFYECCKEPYPDVTFTVTMRRRMGYYLIQMYIPSLLIVILSWISFWINMDAAPARVGLGITTVLTMTTQSSGSRASLPKVSYVKAIDIWMAVCLLFVFSALLEYAAVNFVSRQHKELLRFRRKRRHHKSPMLNLFQEDEAGEGRFNFSAYGMGPACLQAKDGISVKGANNSNTTNPPPAPSKSPEEMRKLFIQRAKKIDKISRIGFPMAFLIFNMFYWIIYKIVRREDVHNQ
modifications: synthetic sequence of chimeric LGIC
[1]; ligand ABT-126
  sensitivity to ABT-126 compared with wild type α7-nAChR: approximately as sensitive
[1]; ligand AZD-0328
  fold more sensitive to AZD-0328 than wild type: approximately 3 fold
[1]; ligand Facinicline/RG3487
  fold more sensitive to Facinicline/RG3487 than wild type: ~10 fold
[1]; ligand TC-6987
  sensitivity to TC-6987 compared with wild type α7-nAChR: approximately as sensitive
[1]; ligand TC-6987, similar to wild type
  type of agonist activity of TC-6987 on the receptor: partial agonist activity
[1]; ligand acetylcholine
  sensitivity to acetylcholine compared with wild type α7-nAChR: approximately as sensitive
[1]; ligand nicotine
  fold less sensitive to nicotine than wild type: ~2 fold
[2]; 1 nM CNL001, first column
  YFP fluorescence quenching using CNL001: 3.727%
[2]; 1 nM CNL001, second column
  YFP fluorescence quenching using CNL001: 20.231%
[2]; 1 nM brd
  YFP fluorescence quenching using TC-5619/Bradanicline: 9.41%
[2]; 3 nM brd
  YFP fluorescence quenching using TC-5619/Bradanicline: 44.38%
[2]; 3 nM var, first column
  YFP fluorescence quenching using Varenicline: −2.36
[2]; 3 nM var, second column
  YFP fluorescence quenching using Varenicline: −3.522
[2]; 10 nM CNL001, first column
  YFP fluorescence quenching using CNL001: 81.096%
[2]; 10 nM CNL001, second column
  YFP fluorescence quenching using CNL001: 82.368%
[2]; 10 nM brd
  YFP fluorescence quenching using TC-5619/Bradanicline: 76.61%
[2]; 30 nM brd
  YFP fluorescence quenching using TC-5619/Bradanicline: 70.23%
[2]; 30 nM fac
  YFP fluorescence quenching using Facinicline: 53.42
[2]; 30 nM var, first column
  YFP fluorescence quenching using Varenicline: −4.255
[2]; 30 nM var, second column
  YFP fluorescence quenching using Varenicline: −3.636
[2]; 50 nM CNL001, first column
  YFP fluorescence quenching using CNL001: 83.62%
[2]; 50 nM CNL001, second column
  YFP fluorescence quenching using CNL001: 84.482%
[2]; 50 nM abt
  YFP fluorescence quenching using ABT-126: −1.98%
[2]; 100 nM CNL001, first column
  YFP fluorescence quenching using CNL001: 84.297%
[2]; 100 nM CNL001, second column
  YFP fluorescence quenching using CNL001: 85.368%
[2]; 100 nM CNL002
  YFP fluorescence quenching using CNL002: 49.61%
[2]; 100 nM abt
  YFP fluorescence quenching using ABT-126: 24.27%
[2]; 100 nM azd0328
  YFP fluorescence quenching using AZD-0328: 73.59%
[2]; 100 nM brd
  YFP fluorescence quenching using TC-5619/Bradanicline: 78.62%
[2]; 100 nM fac
  YFP fluorescence quenching using Facinicline: 83.6
[2]; 300 nM abt
  YFP fluorescence quenching using ABT-126: 56.8%
[2]; 300 nM azd0328
  YFP fluorescence quenching using AZD-0328: 78.09%
[2]; 300 nM brd
  YFP fluorescence quenching using TC-5619/Bradanicline: 75.51%
[2]; 300 nM fac
  YFP fluorescence quenching using Facinicline: 77.44
[2]; 300 nM var, first column
  YFP fluorescence quenching using Varenicline: 46.195
[2]; 300 nM var, second column
  YFP fluorescence quenching using Varenicline: 45.522
[2]; 500 nM abt
  YFP fluorescence quenching using ABT-126: 76.28%
[2]; 500 nM var, first column
  YFP fluorescence quenching using Varenicline: 69.253
[2]; 500 nM var, second column
  YFP fluorescence quenching using Varenicline: 71.705
[2]; 1 uM CNL001, first column
  YFP fluorescence quenching using CNL001: 85.647%
[2]; 1 uM CNL001, second column
  YFP fluorescence quenching using CNL001: 86.358%
[2]; 1 uM CNL002
  YFP fluorescence quenching using CNL002: 74.15%
[2]; 1 uM abt
  YFP fluorescence quenching using ABT-126: 73.16%
[2]; 1 uM tc6987
  YFP fluorescence quenching using TC-6987: 31.56
[2]; 1 uM var, first column
  YFP fluorescence quenching using Varenicline: 79.254
[2]; 1 uM var, second column
  YFP fluorescence quenching using Varenicline: 79.244
[2]; 3 uM abt
  YFP fluorescence quenching using ABT-126: 70.98%
[2]; 3 uM tc6987
  YFP fluorescence quenching using TC-6987: 31.82
[2]; 5 uM tc6987
  YFP fluorescence quenching using TC-6987: 30.75
[2]; 10 uM abt
  YFP fluorescence quenching using ABT-126: 72.62%
[2]; 10 uM tc6987
  YFP fluorescence quenching using TC-6987: 56.68
[2]; 30 uM CNL002
  YFP fluorescence quenching using CNL002: 75.21%
[2]; 30 uM abt
  YFP fluorescence quenching using ABT-126: 77.49%
[2]; 30 uM azd0328
  YFP fluorescence quenching using AZD-0328: 79.05%
[2]; 30 uM fac
  YFP fluorescence quenching using Facinicline: 79.62
[2]; 30 uM tc6987
  YFP fluorescence quenching using TC-6987: 51.46
[2]; 50 uM abt
  YFP fluorescence quenching using ABT-126: 77.96%
[2]; 50 uM tc6987
  YFP fluorescence quenching using TC-6987: 61.26
[2]; 100 uM abt
  YFP fluorescence quenching using ABT-126: 77.81%
[2]; 100 uM tc6987
  YFP fluorescence quenching using TC-6987: 43.21
[2]; 300 uM tc6987
  YFP fluorescence quenching using TC-6987: 7.79
[2]; 500 uM tc6987
  YFP fluorescence quenching using TC-6987: 51.58
[2]
  percent quench of YFP fluorescence, 30 nM TC-6683: −14.43%
  percent quench of YFP fluorescence, 300 nM TC-6683: −13.08%
  percent quench of YFP fluorescence, 3 uM TC-6683: −13.71%
  percent quench of YFP fluorescence, 30 uM TC-6683: −14.02%
  percent quench of YFP fluorescence, 100 uM TC-6683: −8.77%
  percent quench of YFP fluorescence, 100 uM ach: 74.94%
  percent quench of YFP fluorescence, 300 uM ach: 65.94%
  percent quench of YFP fluorescence, 500 uM ach: 62.78%
  percent quench of YFP fluorescence, 1 mM ach: 74.24%
  percent quench of YFP fluorescence, 3 mM ach: 76.27%
  percent quench of YFP fluorescence, 10 mM ach: 77.96%
[2]; acetylcholine 10 uM
  percent quench of YFP fluorescence, 10 uM ach: 15.61%
[2]; acetylcholine 30 uM
  percent quench of YFP fluorescence, 30 uM ach: 63.31%
[2]; acetylcholine 50 uM
  percent quench of YFP fluorescence, 50 uM ach: 73.16%
[2]; acetylcholine 5 mM
  percent quench of YFP fluorescence, 5 mM ach: 77.15%

B2: CODA1056: engineered chimeric LGIC receptor, R101F, Y115E, Y210W in SEQ ID NO: 33 (protein)
chain: MRCSPGGVWLALAASLLHVSLQGEFQRKLYKELVKNYNPLERPVANDSQPLTVYFSLSLLQIMDVDEKNQVLTTNIWLQMSWTDHYLQWNVSEYPGVKTVFFPDGQIWKPDILLENSADERFDATFHTNVLVNSSGHCQYLPPGIFKSSCPMDLKNFPMDVQTCKLKFGSWSYGGWSLDLQMQEADISGYIPNGEWDLVGIPGKRSERFWECCKEPYPDVTFTVTMRRRMGYYLIQMYIPSLLIVILSWISFWINMDAAPARVGLGITTVLTMTTQSSGSRASLPKVSYVKAIDIWMAVCLLFVFSALLEYAAVNFVSRQHKELLRFRRKRRHHKSPMLNLFQEDEAGEGRFNFSAYGMGPACLQAKDGISVKGANNSNTTNPPPAPSKSPEEMRKLFIQRAKKIDKISRIGFPMAFLIFNMFYWIIYKIVRREDVHNQ
modifications: synthetic sequence of chimeric LGIC
[3]; +TC-5619 @ EC90
  Rheobase Shift; Rat DRG Neurons, +TC-5619 @ EC90: 632 ± 43 pA
[3]; Baseline, no ligand
  Rheobase Shift; Rat DRG Neurons, Baseline: 114 ± 12 pA
[2]; 1 nM CNL001, first column
  YFP fluorescence quenching using CNL001: −8.104%
[2]; 1 nM CNL001, second column
  YFP fluorescence quenching using CNL001: −12.153%
[2]; 1 nM brd
  YFP fluorescence quenching using TC-5619/Bradanicline: −7.894%
[2]; 3 nM brd
  YFP fluorescence quenching using TC-5619/Bradanicline: −11.812%
[2]; 10 nM CNL001, first column
  YFP fluorescence quenching using CNL001: −10.462%
[2]; 10 nM CNL001, second column
  YFP fluorescence quenching using CNL001: −4.735%
[2]; 10 nM brd
  YFP fluorescence quenching using TC-5619/Bradanicline: 36.211%
[2]; 30 nM brd
  YFP fluorescence quenching using TC-5619/Bradanicline: 40.624%
[2]; 50 nM CNL001, first column
  YFP fluorescence quenching using CNL001: −8.617%
[2]; 50 nM CNL001, second column
  YFP fluorescence quenching using CNL001: −1.606%
[2]; 50 nM abt
  YFP fluorescence quenching using ABT-126: −20.96%
[2]; 100 nM CNL001, first column
  YFP fluorescence quenching using CNL001: −1.243%
[2]; 100 nM CNL001, second column
  YFP fluorescence quenching using CNL001: 1.838%
[2]; 100 nM abt
  YFP fluorescence quenching using ABT-126: −21.95%
[2]; 100 nM brd
  YFP fluorescence quenching using TC-5619/Bradanicline: 65.869%
[2]; 300 nM abt
  YFP fluorescence quenching using ABT-126: −10.96%
[2]; 300 nM brd
  YFP fluorescence quenching using TC-5619/Bradanicline: 59.661%
[2]; 1 uM CNL001, first column
  YFP fluorescence quenching using CNL001: −0.567%
[2]; 1 uM CNL001, second column
  YFP fluorescence quenching using CNL001: 4.663%
[2]; 1 uM abt
  YFP fluorescence quenching using ABT-126: 10.79%
[2]
  percent quench of YFP fluorescence, 30 nM TC-6683: −19.889%
  percent quench of YFP fluorescence, 300 nM TC-6683: −22.443%
  percent quench of YFP fluorescence, 3 uM TC-6683: −12.623%
  percent quench of YFP fluorescence, 30 uM TC-6683: −10.728%
  percent quench of YFP fluorescence, 100 uM TC-6683: −10.959%
  percent quench of YFP fluorescence, 100 uM ach: −20.55%
  percent quench of YFP fluorescence, 300 uM ach: −19.32%
  percent quench of YFP fluorescence, 500 uM ach: −19.75%
  percent quench of YFP fluorescence, 1 mM ach: −14.08%
  percent quench of YFP fluorescence, 3 mM ach: 14.07%
  percent quench of YFP fluorescence, 10 mM ach: 25.7%

Source: patent US20240317834A1, “COMPOSITIONS AND METHODS FOR NEUROLOGICAL DISEASES” (CODA BIOTHERAPEUTICS, INC., priority 2020, published 2024)
